Measurements from patent US20130039923A1 (Novo Nordisk, published 2013).
Positions count from the first letter of the chain named. Where two headings read alike, the source gives them in different places.

How the values were obtained:
Experiment in all cases: Ala-scan peptide array of hIL20 74-96 on cellulose; fluorescein-labelled antibody; fluorescence as OD
[1] = biological target: T1, Peptide no. 41 (Figure 8A)
T1 construct: Ala-scan peptide on the array; also called Peptide no; Q75A
T1 peptide: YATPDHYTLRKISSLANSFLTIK
Experimental: (§1) The screenings were done using fluorescence labelled antibodies. The labelling was done by gel-filtering the antibody stock against 1% NaHCO3, using NAP5 column (GE Healthcare according the manual from manufacturer. This was followed by adding 25 mole equivalents of 5(6)-carboxyfluorescein N-hydroxysuccinimide ester (Sigma, C1609) dissolved in DMSO. The coupling was allowed to continue for 2 hours followed by a gelfiltration against TRIS washing buffer (50 mM TRIS, pH=7.4, 0.15M NaCl, 0.1 M ArgHCl, 0.05% Tween 20) in order to removed uncoupled fluorescein.
(§2) Screening of arrays were done by adding 10 μl of antibody to 30 ml incubation buffer (0.5% BSA, 50 mM TRIS, pH=7.4, 0.15M NaCl, 0.1 M ArgHCl, 0.05% Tween 20). The sheets were incubated for 1-2 hours, followed by washing five times with washing buffer. […] The fluorescence intensity were measured and transformed into digits that were exported to Prism 5 (Graph Pad Software, USA) for further analysis.

[2] = biological target: T2, Peptide no. 42 (Figure 8A)
T2 construct: Ala-scan peptide on the array; also called Peptide no; T76A
T2 peptide: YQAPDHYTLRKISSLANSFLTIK
Experimental: as §1, §2

[3] = biological target: T3, Peptide no. 44 (Figure 8A)
T3 construct: Ala-scan peptide on the array; also called Peptide no; D78A
T3 peptide: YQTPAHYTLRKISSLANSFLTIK
Experimental: as §1, §2

[4] = biological target: T4, Peptide no. 46 (Figure 8A)
T4 construct: Ala-scan peptide on the array; also called Peptide no; Y80A
T4 peptide: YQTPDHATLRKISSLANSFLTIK
Experimental: as §1, §2

[5] = biological target: T5, Peptide no. 47 (Figure 8A)
T5 construct: Ala-scan peptide on the array; also called Peptide no; T81A
T5 peptide: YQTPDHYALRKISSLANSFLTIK
Experimental: as §1, §2

[6] = biological target: T6, Peptide no. 50 (Figure 8A)
T6 construct: Ala-scan peptide on the array; also called Peptide no; K84A
T6 peptide: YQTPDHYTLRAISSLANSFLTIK
Experimental: as §1, §2

[7] = biological target: T7, Peptide no. 51 (Figure 8A)
T7 construct: Ala-scan peptide on the array; also called Peptide no; I85A
T7 peptide: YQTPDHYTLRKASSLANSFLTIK
Experimental: as §1, §2

[8] = biological target: T8, Peptide no. 52 (Figure 8A)
T8 construct: Ala-scan peptide on the array; also called Peptide no; S86A
T8 peptide: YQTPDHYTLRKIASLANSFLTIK
Experimental: as §1, §2

[9] = biological target: T9, Peptide no. 54 (Figure 8A)
T9 construct: Ala-scan peptide on the array; also called Peptide no; L88A
T9 peptide: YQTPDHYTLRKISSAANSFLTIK
Experimental: as §1, §2

[10] = biological target: T10, Peptide no. 56 (Figure 8A)
T10 construct: Ala-scan peptide on the array; also called Peptide no; S91A
T10 peptide: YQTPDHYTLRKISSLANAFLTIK
Experimental: as §1, §2

[11] = biological target: T11, Peptide no. 57 (Figure 8A)
T11 construct: Ala-scan peptide on the array; also called Peptide no; F92A
T11 peptide: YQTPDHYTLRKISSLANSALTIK
Experimental: as §1, §2

[12] = biological target: T12, Peptide no. 59 (Figure 8A)
T12 construct: Ala-scan peptide on the array; also called Peptide no; T94A
T12 peptide: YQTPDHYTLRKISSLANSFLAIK
Experimental: as §1, §2

[13] = biological target: T13, Peptide no. 60 (Figure 8A)
T13 construct: Ala-scan peptide on the array; also called Peptide no; I95A
T13 peptide: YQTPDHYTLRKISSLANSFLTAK
Experimental: as §1, §2

[14] = biological target: T14, Peptide no. 61 (Figure 8A)
T14 construct: Ala-scan peptide on the array; also called Peptide no; K96A
T14 peptide: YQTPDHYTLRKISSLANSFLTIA
Experimental: as §1, §2

[15] = biological target: T3, Peptide no. 44 (Figure 8A)
Experimental: as §1, §2

[16] = biological target: T15, Peptide no. 45 (Figure 8A)
T15 construct: Ala-scan peptide on the array; also called Peptide no; H79A
T15 peptide: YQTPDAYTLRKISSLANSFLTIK
Experimental: as §1, §2

[17] = biological target: T5, Peptide no. 47 (Figure 8A)
Experimental: as §1, §2

[18] = biological target: T16, Peptide no. 48 (Figure 8A)
T16 construct: Ala-scan peptide on the array; also called Peptide no; L82A
T16 peptide: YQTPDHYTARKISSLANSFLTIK
Experimental: as §1, §2

[19] = biological target: T17, Peptide no. 49 (Figure 8A)
T17 construct: Ala-scan peptide on the array; also called Peptide no; R83A
T17 peptide: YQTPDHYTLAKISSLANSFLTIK
Experimental: as §1, §2

[20] = biological target: T18, Peptide no. 55 (Figure 8A)
T18 construct: Ala-scan peptide on the array; also called Peptide no; N90A
T18 peptide: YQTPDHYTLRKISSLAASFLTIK
Experimental: as §1, §2

[21] = biological target: T10, Peptide no. 56 (Figure 8A)
Experimental: as §1, §2

[22] = biological target: T14, Peptide no. 61 (Figure 8A)
Experimental: as §1, §2

Measured: binding result

B1: human anti-hIL20 monoclonal antibody 15D2 (antibody, V domains shown)
VH: QVQLVQSGAEVKRPGASVKVSCKASGYTFTNDIIHWVRQAPGQRLEWMGWINAGYGNTQYSQNFQDRVSITRDTSASTAYMELISLRSEDTAVYYCAREPLWFGESSPHDYYGMDVWGQGTTVTVSS
VL: AIQLTQSPSSLSASVGDRVTITCRASQGISSALAWYQQKPGKAPKLLIYDASSLESGVPSRFSGSGSGTDFTLTISSLQPEDFATYYCQQFNSYPLTFGGGTKVEIKR
notes: also called 15D2-wt; 15D2 wild-type
binds: [1] | [2] | [3] | [4] | [5] | [6] | [7] | [8] | [9] | [10] | [11] | [12] | [13] | [14]

B2: human anti-hIL20 monoclonal antibody 5B7 (antibody, human IgG4, V domains shown)
VH: B1 VH with T30S, N31S, D32H, I34M, Q59K, S69T, S106L
VL: B1 VL
notes: described as human IgG4; also called 5B7-wt
binds: [15] | [16] | [17] | [18] | [19] | [20] | [21] | [22]
